This is an account of results in PMC7862611, “Ribosome-bound Get4/5 facilitates the capture of tail-anchored proteins by Sgt2 in yeast” (Nature Communications, 2021).

In experiment [1] the target is released Sec22 (yeast (S. cerevisiae)) (UniProt P22214). Kind of experiment: pull-down; FLAG-tag pull-down of radiolabelled ribosome-released FLAG-Sec22 from yeast translation reactions (wild type, Δget3 with or without 2 µM His6Get4/Get5, Δget3Δget4Δget5); immunoblot.
The target of experiment [2] is T1, RNCs carrying the most N-terminal 100 residues of Pgk1 as a nascent chain (yeast (S. cerevisiae) | S. cerevisiae) (UniProt P00560).
T1 sequence (P00560 1-100, looked up): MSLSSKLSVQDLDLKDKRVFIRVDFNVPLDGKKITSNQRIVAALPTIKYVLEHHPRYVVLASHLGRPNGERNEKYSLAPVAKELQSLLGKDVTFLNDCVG
In words: pull-down; FLAG-tag pull-down of RNCs with N-terminally FLAG-tagged nascent chains made in yeast translation extracts (wild type, Δsrp54, without Get4/5, without Sgt2 or Get3; with or without 2 µM purified His6Get4/Get5), RNCs first pelleted through a sucrose cushion; immunoblot. A general note: In western blotting, separated proteins are transferred to a membrane and probed.

A further experiment deals with 80S ribosome (S. cerevisiae). In words: fluorescence polarisation; fluorescence anisotropy; Get4/5-Atto390 held at 20 nM, 80S ribosomes added to 20–500 nM; 20 °C; 50 mM Tris/HCl pH 7.5, 70 mM NH4Cl, 30 mM KCl, 7 mM MgCl2; one site saturation binding fit. To be noted: both partners purified. In general terms: Fluorescence polarisation rises when a labelled molecule tumbles more slowly, as on binding a larger partner.

Chain of released Sec22 (yeast (S. cerevisiae)) (P22214 whole entry): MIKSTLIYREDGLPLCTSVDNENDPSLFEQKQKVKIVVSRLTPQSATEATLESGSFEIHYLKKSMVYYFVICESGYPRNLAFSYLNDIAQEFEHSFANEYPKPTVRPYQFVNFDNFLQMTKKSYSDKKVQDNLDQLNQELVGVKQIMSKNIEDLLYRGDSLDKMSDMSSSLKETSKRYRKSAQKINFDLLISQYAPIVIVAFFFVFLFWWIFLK

In the case of “Sgt2 (from UniProt Q12118 1-346) (natural protein)”, the fold change of binding with added m3 against no addition, Δget3 extract in experiment [1] was > 2 fold.

As for “Get4 (from UniProt Q12125 1-312) (natural protein)”, the percent associated with RNCs in experiment [2] is 2%.

“Get5 (from UniProt Q12285 1-212) (natural protein)”: the percent associated with RNCs in experiment [2] stood at 2%.

B1: Get4/5-Atto390 (complex, yeast (S. cerevisiae))
chain 1: MVPAESNAVQAKLAKTLQRFENKIKAGDYYEAHQTLRTIANRYVRSKSYEHAIELISQGALSFLKAKQGGSGTDLIFYLLEVYDLAEVKVDDISVARLVRLIAELDPSEPNLKDVITGMNNWSIKFSEYKFGDPYLHNTIGSKLLEGDFVYEAERYFMLGTHDSMIKYVDLLWDWLCQVDDIEDSTVAEFFSRLVFNYLFISNISFAHESKDIFLERFIEKFHPKYEKIDKNGYEIVFFEDYSDLNFLQLLLITCQTKDKSYFLNLKNHYLDFSQAYKSELEFLGQEYFNIVAPKQTNFLQDMMSGFLGGSK
chain 2: MSTSASGPEHEFVSKFLTLATLTEPKLPKSYTKPLKDVTNLGVPLPTLKYKYKQNRAKKLKLHQDQQGQDNAAVHLTLKKIQAPKFSIEHDFSPSDTILQIKQHLISEEKASHISEIKLLLKGKVLHDNLFLSDLKVTPANSTITVMIKPNPTISKEPEAEKSTNSPAPAPPQELTVPWDDIEALLKNNFENDQAAVRQVMERLQKGWSLAK
modifications: ATTO-390-maleimide on the surface-exposed cysteine of the two cysteines present in Get4 (C177, 255)
notes: Get4, yeast; Get5, yeast; also called Get4/His6Get5; Get4_(2)Get5_(2) complex; copies: 2 + 2
By Kd is commonly meant the constant that tells how readily two partners part at equilibrium. A high value points to a looser complex. B1: in the experiment with 80S ribosome, the Kd worked out at 110 nM.

B2: signal recognition particle (SRP), followed by its 54 kDa subunit Srp54 (natural protein)
chain: MVLADLGKRINSAVNNAISNTQDDFTTSVDVMLKGIVTALLESDVNIALVSKLRNNIRSQLLSENRSEKSTTNAQTKKLIQKTVFDELCKLVTCEGSEEKAFVPKKRKTNIIMFVGLQGSGKTTSCTKLAVYYSKRGFKVGLVCADTFRAGAFDQLKQNAIRARIPFYGSYTETDPAKVAEEGINKFKKEKFDIIIVDTSGRHHQEEELFQEMIEISNVIKPNQTIMVLDASIGQAAEQQSKAFKESSDFGAIILTKMDGHARGGGAISAVAATNTPIIFIGTGEHIHDLEKFSPKSFISKLLGIGDIESLFEQLQTVSNKEDAKATMENIQKGKFTLLDFKKQMQTIMKMGPLSNIAQMIPGMSNMMNQVGEEETSQKMKKMVYVLDSMTKEELESDGRMFIEEPTRMVRVAKGSGTSVFEVEMILMQQQMMARMAQTATQQQPGAPGANARMPGMPNMPGMPNMPGMPNMPGMPKVTPQMMQQAQQKLKQNPGLMQNMMNMFGGGMGGGMGGGMPDMNEMMKMMQDPQMQQMAKQFGMG
In experiment [2], B2 came in with a percent associated with RNCs of 0.3%.
